# Data reported in the Immune Epitope Database (IEDB).
# Columns and labels:
# Assay in all cases: IEDB peptide-MHC binding, purified MHC/competitive/radioactivity; filed as Kd, often an IC50 or EC50 that approximates it; ≥ and ≤ were set here for values at or beyond the usual limits of such assays
# HLA-A*33:01 = biological target: HLA-A*33:01
# HLA-A*31:01 = biological target: HLA-A*31:01
# HLA-A*68:01 = biological target: HLA-A*68:01
# HLA-A*11:01 = biological target: HLA-A*11:01
# HLA-A*03:01 = biological target: HLA-A*03:01
# [1] = source organism: SARS coronavirus Tor2
# [2] = source organism: Vaccinia virus WR
# [3] = source organism: Dengue virus 4 Philippines/H241/1956
# [4] = source organism: Mammarenavirus brazilense
# [5] = source organism: Dengue virus 2 Jamaica/1409/1983
# [6] = source organism: Dengue virus 3 Martinique/1243/1999
# [7] = source organism: Lassa virus GA391
# [8] = source organism: Vaccinia virus Copenhagen
# [9] = source organism: Dengue virus 1 Nauru/West Pac/1974
# [10] = source organism: Mammarenavirus machupoense
# [11] = source organism: Mammarenavirus lassaense
Sequence,Kd (HLA-A*33:01; [2]) [nM],Kd (HLA-A*31:01; [2]) [nM],Kd (HLA-A*68:01; [2]) [nM],Kd (HLA-A*11:01; [2]) [nM],Kd (HLA-A*03:01; [2]) [nM],other results
AANTVIWDY,–,–,–,–,–,Kd (HLA-A*33:01; [1]): ≥ 77700 nM; Kd (HLA-A*31:01; [1]): ≥ 38100 nM; Kd (HLA-A*68:01; [1]): 14200 nM; Kd (HLA-A*11:01; [1]): 107 nM; Kd (HLA-A*03:01; [1]): ≥ 78000 nM
AISAVYFKAK,≥ 70000,1640,2530,26,8.04,–
ALTLHWFRK,–,–,–,–,–,Kd (HLA-A*11:01; [3]): 100 nM; Kd (HLA-A*03:01; [3]): 15 nM
AQQFANVISK,≥ 70000,1940,17600,2.68,83.8,–
CEMNHVNSMH,–,–,–,–,–,Kd (HLA-A*68:01; [4]): ≥ 48100 nM
DAEACYIYK,234,208,49.2,57.5,1350,–
DFIRRKYLIY,10400,≥ 70000,1100,≥ 20200,8650,–
DGCWYGMEIR,–,–,–,–,–,Kd (HLA-A*33:01; [5]): 154 nM
DILTYNKTSK,1760,≥ 38100,2970,≥ 21100,2320,–
DLTTMPTYK,914,630,128,293,757,–
DNQKLSYLK,–,–,–,–,–,Kd (HLA-A*33:01; [4]): 8370 nM; Kd (HLA-A*31:01; [4]): 2650 nM; Kd (HLA-A*68:01; [4]): 7480 nM; Kd (HLA-A*03:01; [4]): ≥ 78000 nM
DTRTPKAKR,–,–,–,–,–,Kd (HLA-A*33:01; source organism: Dengue virus 1 Singapore/S275/1990): 93.7 nM
DVHPGEPVVK,≥ 70000,≥ 32000,57,≥ 23700,15400,–
DVRDKRRKY,≥ 77700,≥ 77900,≥ 53800,≥ 77900,≥ 28900,–
EFVMCLEAK,153,9760,267,965,≥ 54200,–
EFWKLVDRER,–,–,–,–,–,Kd (HLA-A*33:01; source organism: Dengue virus 3 Sri Lanka/1266/2000): 2.92 nM
EIKAEMQLK,1520,≥ 43900,15.7,1670,1020,–
EILKINSVKY,5170,1040,3870,6290,6090,–
EILRNYLRLY,123,3460,512,2110,489,–
ELAELLEMKY,≥ 70000,≥ 50800,2840,≥ 29500,14200,–
ELGIAIFNNR,160,59.9,40.6,1470,961,–

Sequence,Kd (HLA-A*33:01; [2]) [nM],Kd (HLA-A*31:01; [2]) [nM],Kd (HLA-A*68:01; [2]) [nM],Kd (HLA-A*11:01; [2]) [nM],Kd (HLA-A*03:01; [2]) [nM],other results
ELYVSSSYK,≥ 54200,≥ 77900,6.71,12.4,0.73,–
EMGLLETTKR,–,–,–,–,–,Kd (HLA-A*33:01; [6]): 58.2 nM
ENAVWDQFK,–,–,–,–,–,Kd (HLA-A*33:01; [7]): 1020 nM; Kd (HLA-A*31:01; [7]): ≥ 77900 nM; Kd (HLA-A*68:01; [7]): 250 nM; Kd (HLA-A*11:01; [7]): 15100 nM; Kd (HLA-A*03:01; [7]): ≥ 31500 nM
ESNIEIMDK,≥ 77700,≥ 77900,11.2,10800,15500,–
ETKGVERLKR,–,–,–,–,–,Kd (HLA-A*33:01; [6]): 336 nM; Kd (HLA-A*68:01; [6]): 14.2 nM
ETTMRGAKR,–,–,–,–,–,Kd (HLA-A*33:01; [5]): 117 nM; Kd (HLA-A*68:01; [5]): 35.8 nM
FASADNHPK,1240,12400,55.7,174,7960,–
FIRIIRPDY,≥ 24700,7050,3090,≥ 56200,≥ 78000,–
FLLNISYLCH,–,–,–,–,–,Kd (HLA-A*33:01; [4]): 5.32 nM; Kd (HLA-A*31:01; [4]): 5830 nM; Kd (HLA-A*11:01; [4]): ≥ 46600 nM; Kd (HLA-A*03:01; [4]): 11800 nM
FLLRHYYNKR,17.4,16.2,1850,1130,1840,–
FMRFFQLLR,1.97,0.668,11.7,354,141,–
FVVTLIPLCR,–,–,–,–,–,Kd (HLA-A*33:01; [3]): 11.8 nM; Kd (HLA-A*68:01; [3]): 3.1 nM
GLACYRFVK,–,–,–,–,–,Kd (HLA-A*33:01; [8]): 1830 nM; Kd (HLA-A*31:01; [8]): 217 nM; Kd (HLA-A*68:01; [8]): 703 nM; Kd (HLA-A*11:01; [8]): 24 nM; Kd (HLA-A*03:01; [8]): 22.2 nM
GMLIYSMWGK,9910,271,54.6,17.5,8.57,–
GQLKLNWFK,–,–,–,–,–,Kd (HLA-A*11:01; [5]): 28.1 nM
GSIKIKQDVR,2480,281,253,611,8060,–
GTILIKVEYK,–,–,–,–,–,Kd (HLA-A*68:01; [6]): 38.2 nM; Kd (HLA-A*11:01; [6]): 69.2 nM
GVTLFFLSGR,–,–,–,–,–,Kd (HLA-A*33:01; [9]): 56.2 nM; Kd (HLA-A*31:01; [9]): ≥ 70000 nM
HYIHCFRKPH,–,–,–,–,–,Kd (HLA-A*33:01; [10]): 589 nM; Kd (HLA-A*31:01; [10]): 89.8 nM; Kd (HLA-A*68:01; [10]): ≥ 70100 nM; Kd (HLA-A*11:01; [10]): ≥ 69700 nM; Kd (HLA-A*03:01; [10]): ≥ 70000 nM
IAARGYISTR,–,–,–,–,–,Kd (HLA-A*68:01; [5]): 12 nM
ICKMPLPTR,–,–,–,–,–,Kd (HLA-A*33:01; [11]): 775 nM; Kd (HLA-A*31:01; [11]): 36.8 nM; Kd (HLA-A*68:01; [11]): 16100 nM; Kd (HLA-A*11:01; [11]): 6030 nM; Kd (HLA-A*03:01; [11]): ≥ 40300 nM
